Measured values as given in US20140294837A1 (SAMSUNG ELECTRONICS, published 2014).

What was measured:
[1] = biological target: c-Met on cells (MKN45, Caki-1, NCI-H441, HUVEC) (human, UniProt P08581 25-1390); assay: cell-based or functional assay
[2] = biological target: T1, c-Met (R&D Systems, Cat. No. 358-MT/CF) (UniProt P08581 25-932); assay: SPR, Biacore T100; antibody captured by human Fab binder on CM5 chip, c-Met injected
T1 construct: Bought protein used as analyte in SPR
Description: The binding kinetics of the double-targeted fusion proteins manufactured in the above were analyzed using Biacore T100 instrument (GE Healthcare). A human Fab binding agent (GE Healthcare) was immobilized on the surface of a CM5 chip (GE Healthcare, Cat. No. BR-1005-30) according to the manufacturer's manual. […] Then, 10 mM Glycine-HCl (pH 1.5) solution was added thereto, whereby the surface was regenerated. In order to measure the binding kinetics, the data obtained from the above experiment was fitted using BIAevaluation software (GE Healthcare, Biacore T100 evaluation software).

[3] = biological target: T2, human c-Met/Fc fusion protein (R&D Systems) (human, UniProt P08581 25-932); assay: ELISA, hybridoma culture on plate-coated human c-Met/Fc fusion protein
T2 construct: Immunogen and ELISA antigen; also called human c-Met/Fc protein; not shown: Fc part of the bought fusion protein; not described
T2 sequence (P08581 25-932 limits assumed): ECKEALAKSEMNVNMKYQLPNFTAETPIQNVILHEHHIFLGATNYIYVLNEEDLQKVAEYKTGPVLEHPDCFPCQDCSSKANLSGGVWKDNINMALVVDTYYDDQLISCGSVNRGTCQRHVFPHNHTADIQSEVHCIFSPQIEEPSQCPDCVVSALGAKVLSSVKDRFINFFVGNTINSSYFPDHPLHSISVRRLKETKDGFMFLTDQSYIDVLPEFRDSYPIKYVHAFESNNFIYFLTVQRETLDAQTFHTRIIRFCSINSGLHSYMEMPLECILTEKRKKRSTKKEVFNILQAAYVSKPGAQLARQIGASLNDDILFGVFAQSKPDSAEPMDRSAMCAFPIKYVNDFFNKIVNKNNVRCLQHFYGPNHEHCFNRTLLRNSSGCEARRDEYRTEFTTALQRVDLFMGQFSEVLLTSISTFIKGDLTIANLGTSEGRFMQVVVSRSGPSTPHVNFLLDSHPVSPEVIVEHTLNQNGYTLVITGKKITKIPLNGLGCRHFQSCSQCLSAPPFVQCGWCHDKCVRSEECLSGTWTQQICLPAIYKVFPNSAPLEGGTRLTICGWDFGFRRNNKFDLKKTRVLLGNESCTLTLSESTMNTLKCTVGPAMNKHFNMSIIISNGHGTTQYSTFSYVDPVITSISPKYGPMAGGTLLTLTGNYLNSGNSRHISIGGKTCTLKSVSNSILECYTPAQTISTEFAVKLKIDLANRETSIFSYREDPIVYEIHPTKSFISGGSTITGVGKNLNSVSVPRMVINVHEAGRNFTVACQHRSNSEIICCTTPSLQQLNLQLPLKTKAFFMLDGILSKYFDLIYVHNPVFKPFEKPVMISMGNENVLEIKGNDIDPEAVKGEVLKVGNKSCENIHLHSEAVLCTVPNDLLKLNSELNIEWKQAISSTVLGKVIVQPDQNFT

[4] = biological target: hVEGF (GE Healthcare, 28-9583-25) (human, UniProt P15692-4 27-191); assay: SPR, Biacore T100; hVEGF immobilized on CM5 chip, MV10AY at 6 concentrations
hVEGF (GE Healthcare, 28-9583-25), sequence (P15692 other isoform, or with tags, fused parts or gaps limits assumed): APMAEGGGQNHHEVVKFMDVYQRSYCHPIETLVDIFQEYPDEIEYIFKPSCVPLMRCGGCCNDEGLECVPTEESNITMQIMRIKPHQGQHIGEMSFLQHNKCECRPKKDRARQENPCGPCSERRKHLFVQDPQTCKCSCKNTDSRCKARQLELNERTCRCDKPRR
Description: The binding kinetics of the double-specific antibodies having VEGF as a target were measured by an SPR method using Biacore T100 instrument (GE Healthcare). hVEGF (GE Healthcare, 28-9583-25) was immobilized on the surface of a CM5 chip according to the manufacturer's manual. […] The obtained surface was regenerated by injecting 1M NaCl+30 mM NaOH at a fluid rate of 30 μl/min for 60 sec. In order to determine binding kinetics, the data obtained from the above experiment was fitted using BIAevaluation software (GE Healthcare) (K_{D=}=0.45 nM).

T1 sequence (P08581 25-932 limits assumed): as the sequence (P08581 25-932 limits assumed) above
c-Met on cells (MKN45, Caki-1, NCI-H441, HUVEC), sequence (P08581 25-1390): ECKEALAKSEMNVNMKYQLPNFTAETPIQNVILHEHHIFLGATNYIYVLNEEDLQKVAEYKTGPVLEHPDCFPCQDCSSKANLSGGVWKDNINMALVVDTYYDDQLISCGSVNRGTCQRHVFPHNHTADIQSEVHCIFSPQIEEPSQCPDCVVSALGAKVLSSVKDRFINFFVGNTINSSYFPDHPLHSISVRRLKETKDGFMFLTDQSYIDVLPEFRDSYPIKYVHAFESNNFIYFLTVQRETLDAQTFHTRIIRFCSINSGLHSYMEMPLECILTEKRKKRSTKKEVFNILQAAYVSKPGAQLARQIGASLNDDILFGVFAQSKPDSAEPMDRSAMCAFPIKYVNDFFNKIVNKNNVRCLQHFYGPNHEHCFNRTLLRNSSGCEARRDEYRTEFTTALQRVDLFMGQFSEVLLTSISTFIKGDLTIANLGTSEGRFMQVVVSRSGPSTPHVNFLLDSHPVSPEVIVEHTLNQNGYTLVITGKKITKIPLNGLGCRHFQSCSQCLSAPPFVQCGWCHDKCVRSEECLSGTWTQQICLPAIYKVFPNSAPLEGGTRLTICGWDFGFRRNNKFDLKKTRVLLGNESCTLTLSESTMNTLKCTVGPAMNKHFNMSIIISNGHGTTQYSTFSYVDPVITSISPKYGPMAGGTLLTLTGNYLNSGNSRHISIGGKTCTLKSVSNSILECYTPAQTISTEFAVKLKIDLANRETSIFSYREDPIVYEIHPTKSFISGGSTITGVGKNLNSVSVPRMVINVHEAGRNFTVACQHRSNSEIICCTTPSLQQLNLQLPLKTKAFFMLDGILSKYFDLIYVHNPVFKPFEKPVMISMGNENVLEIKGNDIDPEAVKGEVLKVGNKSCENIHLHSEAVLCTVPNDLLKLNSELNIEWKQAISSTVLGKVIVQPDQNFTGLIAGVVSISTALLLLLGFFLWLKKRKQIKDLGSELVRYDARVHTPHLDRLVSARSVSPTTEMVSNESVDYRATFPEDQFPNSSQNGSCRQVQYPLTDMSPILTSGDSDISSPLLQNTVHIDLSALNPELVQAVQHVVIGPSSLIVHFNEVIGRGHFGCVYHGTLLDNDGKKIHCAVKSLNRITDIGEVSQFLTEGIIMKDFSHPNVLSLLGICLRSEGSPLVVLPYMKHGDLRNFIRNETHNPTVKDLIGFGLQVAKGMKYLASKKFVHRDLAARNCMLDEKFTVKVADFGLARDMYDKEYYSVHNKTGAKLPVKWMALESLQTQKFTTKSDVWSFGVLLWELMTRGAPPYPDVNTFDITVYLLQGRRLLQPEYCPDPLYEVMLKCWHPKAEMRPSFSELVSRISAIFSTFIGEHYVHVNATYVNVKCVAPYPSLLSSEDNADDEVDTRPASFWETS

Binder | AKT phosphorylation inhibitory ability (phospho-AKT Ser473 ELISA, Caki-1 cells, compared to 5D5 control group) [1] [%] | c-Met degradation ability (total c-Met ELISA, MKN45 cells, 5 ug/ml antibody, 24 h) [1] [%] | Kd [2] [nM] | koff [2] [s⁻¹] | kon [2] [M⁻¹ s⁻¹] | other results
L3-1Y (antibody, V domains shown, also called c-Met single-targeted antibody L3-1Y) VH: EVQLVESGGGLVQPGGSLRLSCAASGFTFTDYYMSWVRQAPGKGLEWLGFIRNKANGYTTEYSASVKGRFTISRDNSKNTLYLQMNSLRAEDTAVYYCARDNWFAYWGQGTLVTVSS VL: DIQMTQSPSSLSASVGDRVTITCKSSQSLLASGNQNNYLAWYQQKPGKAPKMLIIWASTRVSGVPSRFSGSGSGTDFTLTISSLQPEDFATYYCQQSYSRPYTFGQGTKVEIKR | 63 | 66 | < 0.01 | < 1.2e-05 | 770000 | –
Ab2 (antibody, V domains shown) VH: QVQLVQSGAEVKKPGASVKVSCKASGYIFTAYTMHWVRQAPGQGLDWMGGIKPNNGLANYAQKFQGRVTMTVDKSISTAYMELSRLRSDDTAVYYCARSEITTEFDYWGQGTLVTVSS VL: DIVLTQSPDSLAVSLGERATINCRSSESVDSYANSFMHWYQQKPGQPPKLLIYRASTRESGVPDRFSGSGSRTDFTLTISSLQAEDVAVYYCQQSKEDPLTFGGGTKVEIKR | – | – | – | – | – | c-Met degradation ability (total c-Met ELISA, method of Example 2.2) [1]: 70.4%
AbF46, a mouse antibody to c-Met (antibody, V domains shown, also called monoclonal antibody of hybridoma KCLRF-BP-00220) VH: EVKLVESGGGLVQPGGSLRLSCATSGFTFTDYYMSWVRQPPGKALEWLGFIRNKANGYTTEYSASVKGRFTISRDNSQSILYLQMDTLRAEDSATYYCARDNWFAYWGQGTLVTVSA VL: DILMTQSPSSLTVSAGEKVTMSCKSSQSLLASGNQNNYLAWHQQKPGRSPKMLIIWASTRVSGVPDRFIGSGSGTDFTLTINSVQAEDLAVYYCQQSYSAPLTFGAGTKLELK | – | – | – | – | – | binding result [3]: binds
MV10A (bispecific antibody) heavy: not shown light: DIQMTQSPSSLSASVGDRVTITCKSSQSLLASGNQNNHLAWYQQKPGKAPKMLIIWASTRVSGVPSRFSGSGSGTDFTLTISSLQPEDFATYYCQQSYSRPYTFGQGTKVEIKRTVAAPSVFIFPPSDEQLKSGTASVVCLLNNFYPREAKVQWKVDNALQSGNSQESVTEQDSKDSTYSLSSTLTLSKADYEKHKVYACEVTHQGLSSPVTKSFNRGEC | 79 | 76 | – | – | – | –
MV10AY (bispecific antibody, also called bispecific antibody MV10AY; double-specific antibody MV10AY) heavy: not shown light: DIQMTQSPSSLSASVGDRVTITCKSSQSLLASGNQNNYLAWYQQKPGKAPKMLIIWASTRVSGVPSRFSGSGSGTDFTLTISSLQPEDFATYYCQQSYSRPYTFGQGTKVEIKRTVAAPSVFIFPPSDEQLKSGTASVVCLLNNFYPREAKVQWKVDNALQSGNSQESVTEQDSKDSTYSLSSTLTLSKADYEKHKVYACEVTHQGLSSPVTKSFNRGEC | 74 | 72 | < 0.01 | < 1.4e-05 | 680000 | Kd [4]: 0.45 nM; koff [4]: 0.0011 s⁻¹; kon [4]: 2.4e+06 M⁻¹ s⁻¹

More lines, main results first:

AKT phosphorylation inhibitory ability (phospho-AKT Ser473 ELISA, Caki-1 cells, compared to 5D5 control group) [1] [%] | c-Met degradation ability (total c-Met ELISA, MKN45 cells, 5 ug/ml antibody, 24 h) [1] [%] | Kd [2] [nM] | koff [2] [s⁻¹] | kon [2] [M⁻¹ s⁻¹] | Binder | other results
69 | 68 | – | – | – | huAbF46-H4-A1 (L3-1 origin) (antibody, V domains shown) VH: EVQLVESGGGLVQPGGSLRLSCAASGFTFTDYYMSWVRQAPGKGLEWLGFIRNKANGYTTEYSASVKGRFTISRDNSKNTLYLQMNSLRAEDTAVYYCARDNWFAYWGQGTLVTVSS VL: DIQMTQSPSSLSASVGDRVTITCKSSQSLLASGNQNNHLAWYQQKPGKAPKMLIIWASTRVSGVPSRFSGSGSGTDFTLTISSLQPEDFATYYCQQSYSRPYTFGQGTKVEIKR | –
– | – | < 0.01 | < 6.9e-05 | 720000 | MV10AY U3 HC9/IgG2 (bispecific antibody) heavy: EVQLVESGGGLVQPGGSLRLSCAASGFTFTDYYMSWVRQAPGKGLEWLGFIRNKANGYTTEYSASVKGRFTISRDNSKNTLYLQMNSLRAEDTAVYYCARDNWFAYWGQGTLVTVSSASTKGPSVFPLAPCSRSTSESTAALGCLVKDYFPEPVTVSWNSGALTSGVHTFPAVLQSSGLYSLSSVVTVPSSNFGTQTYTCNVDHKPSNTKVDKTVERKCCVECPPCPAPPVAGPSVFLFPPKPKDTLMISRTPEVTCVVVDVSHEDPEVQFNWYVDGVEVHNAKTKPREEQFNSTFRVVSVLTVVHQDWLNGKEYKCKVSNKGLPAPIEKTISKTKGQPREPQVYTLPPSREEMTKNQVSLTCLVKGFYPSDIAVEWESNGQPENNYKTTPPMLDSDGSFFLYSKLTVDKSRWQQGNVFSCSVMHEALHNHYTQKSLSLSPGKGGGGSGGGGSSDTGRPFVEMYSEIPEIIHMTEGRELVIPCRVTSPNITVTLKKFPLDTLIPDGKRIIWDSRKGFIISNATYKEIGLLTCEATVNGHLYKTNYLTHRQTNTI light: DIQMTQSPSSLSASVGDRVTITCKSSQSLLASGNQNNYLAWYQQKPGKAPKMLIIWASTRVSGVPSRFSGSGSGTDFTLTISSLQPEDFATYYCQQSYSRPYTFGQGTKVEIKRTVAAPSVFIFPPSDEQLKSGTASVVCLLNNFYPREAKVQWKVDNALQSGNSQESVTEQDSKDSTYSLSSTLTLSKADYEKHKVYACEVTHQGLSSPVTKSFNRGEC | –
